Data from article PMC12152876 (The Journal of Biological Chemistry, 2025).

Target: the molecule itself
Test: cross-linking

B1: Ebola virus nucleoprotein (NP), wild type, expressed for DSP cross-linking (natural protein)
chain: MDSRPQKIWMAPSLTESDMDYHKILTAGLSVQQGIVRQRVIPVYQVNNLEEICQLIIQAFEAGVDFQESADSFLLMLCLHHAYQGDYKLFLESGAVKYLEGHGFRFEVKKRDGVKRLEELLPAVSSGKNIKRTLAAMPEEETTEANAGQFLSFASLFLPKLVVGEKACLEKVQRQIQVHAEQGLIQYPTAWQSVGHMMVIFRLMRTNFLIKFLLIHQGMHMVAGHDANDAVISNSVAQARFSGLLIVKTVLDHILQKTERGVRLHPLARTAKVKNEVNSFKAALSSLAKHGEYAPFARLLNLSGVNNLEHGLFPQLSAIALGVATAHGSTLAGVNVGEQYQQLREAATEAEKQLQQYAESRELDHLGLDDQEKKILMNFHQKKNEISFQQTNAMVTLRKERLAKLTEAITAASLPKTSGHYDDDDDIPFPGPINDDDNPGHQDDDPTDSQDTTIPDVVVDPDDGSYGEYQSYSENGMNAPDDLVLFDLDEDDEDTKPVPNRSTKGGQQKNSQKGQHIEGRQTQSRPIQNVPGPHRTIHHASAPLTDNDRRNEPSGSTSPRMLTPINEEADPLDDADDETSSLPPLESDDEEQDRDGTSNRTPTVAPPAPVYRDHSEKKELPQDEQQDQDHTQEARNQDSDNTQSEHSFEEMYRHILRSQGPFDAVLYYHMMKDEPVVFSTSDGKEYTYPDSLEEEYPPWLTEKEAMNEENRFVTLDGQQFYWPVMNHKNKFMAILQHHQ
With B1 the “stoichiometry N” value was 2.
